Results taken from patent publication US20200297818A1 (ZEALAND PHARMA A S, published 2020).
Numbering of substitutions follows the chain as printed.

T1: human GLP-2 receptor (hGLP2-R) (human, UniProt O95838 1-553)
T1 sequence (looked up): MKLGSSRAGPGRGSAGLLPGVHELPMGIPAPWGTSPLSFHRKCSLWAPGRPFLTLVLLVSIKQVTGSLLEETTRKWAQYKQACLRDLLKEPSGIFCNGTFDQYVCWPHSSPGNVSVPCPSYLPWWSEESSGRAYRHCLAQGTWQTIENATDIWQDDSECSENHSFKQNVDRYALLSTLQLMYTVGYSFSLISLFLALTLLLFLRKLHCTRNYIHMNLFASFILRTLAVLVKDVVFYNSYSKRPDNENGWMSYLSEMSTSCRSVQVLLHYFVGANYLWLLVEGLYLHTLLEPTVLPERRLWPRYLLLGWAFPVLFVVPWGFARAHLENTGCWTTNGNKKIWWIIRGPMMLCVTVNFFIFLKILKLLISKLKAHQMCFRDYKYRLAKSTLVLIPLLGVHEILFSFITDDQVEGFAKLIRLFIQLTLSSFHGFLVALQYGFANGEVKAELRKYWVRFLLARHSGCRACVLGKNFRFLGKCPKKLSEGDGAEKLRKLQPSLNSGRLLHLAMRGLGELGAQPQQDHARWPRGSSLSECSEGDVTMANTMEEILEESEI

B1: Compound 25 (peptide)
peptide: HXEGTFTSELATILDXQAARDFIAWLIEHKITD
HELM: PEPTIDE1{H.[Aib].E.G.T.F.T.S.E.L.A.T.I.L.D.K.Q.A.A.R.D.F.I.A.W.L.I.E.H.K.I.T.D}|PEPTIDE2{[O=C(O)CCCCCCCCCCCCCCCCC(=O)[*:2]].[gGlu]}$PEPTIDE1,PEPTIDE2,16:R3-2:R2$$$V2.0
SMILES: CC[C@H](C)[C@H](NC(=O)[C@H](Cc1ccccc1)NC(=O)[C@H](CC(=O)O)NC(=O)[C@H](CCCNC(=N)N)NC(=O)[C@H](C)NC(=O)[C@H](C)NC(=O)[C@H](CCC(N)=O)NC(=O)[C@H](CCCCNC(=O)CC[C@H](NC(=O)CCCCCCCCCCCCCCCCC(=O)O)C(=O)O)NC(=O)[C@H](CC(=O)O)NC(=O)[C@H](CC(C)C)NC(=O)[C@@H](NC(=O)[C@@H](NC(=O)[C@H](C)NC(=O)[C@H](CC(C)C)NC(=O)[C@H](CCC(=O)O)NC(=O)[C@H](CO)NC(=O)[C@@H](NC(=O)[C@H](Cc1ccccc1)NC(=O)[C@@H](NC(=O)CNC(=O)[C@H](CCC(=O)O)NC(=O)C(C)(C)NC(=O)[C@@H](N)Cc1c[nH]cn1)[C@@H](C)O)[C@@H](C)O)[C@@H](C)O)[C@@H](C)CC)C(=O)N[C@@H](C)C(=O)N[C@@H](Cc1c[nH]c2ccccc12)C(=O)N[C@@H](CC(C)C)C(=O)N[C@H](C(=O)N[C@@H](CCC(=O)O)C(=O)N[C@@H](Cc1c[nH]cn1)C(=O)N[C@@H](CCCCN)C(=O)N[C@H](C(=O)N[C@H](C(=O)N[C@@H](CC(=O)O)C(=O)O)[C@@H](C)O)[C@@H](C)CC)[C@@H](C)CC
B2: Compound 27 (peptide)
peptide: B1 peptide with T5S, E28Y
HELM: PEPTIDE1{H.[Aib].E.G.S.F.T.S.E.L.A.T.I.L.D.K.Q.A.A.R.D.F.I.A.W.L.I.Y.H.K.I.T.D}|PEPTIDE2{[O=C(O)CCCCCCCCCCCCCCCCC(=O)[*:2]].[gGlu]}$PEPTIDE1,PEPTIDE2,16:R3-2:R2$$$V2.0
SMILES: CC[C@H](C)[C@H](NC(=O)[C@H](Cc1ccccc1)NC(=O)[C@H](CC(=O)O)NC(=O)[C@H](CCCNC(=N)N)NC(=O)[C@H](C)NC(=O)[C@H](C)NC(=O)[C@H](CCC(N)=O)NC(=O)[C@H](CCCCNC(=O)CC[C@H](NC(=O)CCCCCCCCCCCCCCCCC(=O)O)C(=O)O)NC(=O)[C@H](CC(=O)O)NC(=O)[C@H](CC(C)C)NC(=O)[C@@H](NC(=O)[C@@H](NC(=O)[C@H](C)NC(=O)[C@H](CC(C)C)NC(=O)[C@H](CCC(=O)O)NC(=O)[C@H](CO)NC(=O)[C@@H](NC(=O)[C@H](Cc1ccccc1)NC(=O)[C@H](CO)NC(=O)CNC(=O)[C@H](CCC(=O)O)NC(=O)C(C)(C)NC(=O)[C@@H](N)Cc1c[nH]cn1)[C@@H](C)O)[C@@H](C)O)[C@@H](C)CC)C(=O)N[C@@H](C)C(=O)N[C@@H](Cc1c[nH]c2ccccc12)C(=O)N[C@@H](CC(C)C)C(=O)N[C@H](C(=O)N[C@@H](Cc1ccc(O)cc1)C(=O)N[C@@H](Cc1c[nH]cn1)C(=O)N[C@@H](CCCCN)C(=O)N[C@H](C(=O)N[C@H](C(=O)N[C@@H](CC(=O)O)C(=O)O)[C@@H](C)O)[C@@H](C)CC)[C@@H](C)CC
B3: Compound 26 (peptide)
peptide: B1 peptide with T5S, E28H
HELM: PEPTIDE1{H.[Aib].E.G.S.F.T.S.E.L.A.T.I.L.D.K.Q.A.A.R.D.F.I.A.W.L.I.H.H.K.I.T.D}|PEPTIDE2{[O=C(O)CCCCCCCCCCCCCCCCC(=O)[*:2]].[gGlu]}$PEPTIDE1,PEPTIDE2,16:R3-2:R2$$$V2.0
SMILES: CC[C@H](C)[C@H](NC(=O)[C@H](Cc1ccccc1)NC(=O)[C@H](CC(=O)O)NC(=O)[C@H](CCCNC(=N)N)NC(=O)[C@H](C)NC(=O)[C@H](C)NC(=O)[C@H](CCC(N)=O)NC(=O)[C@H](CCCCNC(=O)CC[C@H](NC(=O)CCCCCCCCCCCCCCCCC(=O)O)C(=O)O)NC(=O)[C@H](CC(=O)O)NC(=O)[C@H](CC(C)C)NC(=O)[C@@H](NC(=O)[C@@H](NC(=O)[C@H](C)NC(=O)[C@H](CC(C)C)NC(=O)[C@H](CCC(=O)O)NC(=O)[C@H](CO)NC(=O)[C@@H](NC(=O)[C@H](Cc1ccccc1)NC(=O)[C@H](CO)NC(=O)CNC(=O)[C@H](CCC(=O)O)NC(=O)C(C)(C)NC(=O)[C@@H](N)Cc1c[nH]cn1)[C@@H](C)O)[C@@H](C)O)[C@@H](C)CC)C(=O)N[C@@H](C)C(=O)N[C@@H](Cc1c[nH]c2ccccc12)C(=O)N[C@@H](CC(C)C)C(=O)N[C@H](C(=O)N[C@@H](Cc1c[nH]cn1)C(=O)N[C@@H](Cc1c[nH]cn1)C(=O)N[C@@H](CCCCN)C(=O)N[C@H](C(=O)N[C@H](C(=O)N[C@@H](CC(=O)O)C(=O)O)[C@@H](C)O)[C@@H](C)CC)[C@@H](C)CC
B4: Compound 28 (peptide)
peptide: B1 peptide with T5S, E28L
HELM: PEPTIDE1{H.[Aib].E.G.S.F.T.S.E.L.A.T.I.L.D.K.Q.A.A.R.D.F.I.A.W.L.I.L.H.K.I.T.D}|PEPTIDE2{[O=C(O)CCCCCCCCCCCCCCCCC(=O)[*:2]].[gGlu]}$PEPTIDE1,PEPTIDE2,16:R3-2:R2$$$V2.0
SMILES: CC[C@H](C)[C@H](NC(=O)[C@H](Cc1ccccc1)NC(=O)[C@H](CC(=O)O)NC(=O)[C@H](CCCNC(=N)N)NC(=O)[C@H](C)NC(=O)[C@H](C)NC(=O)[C@H](CCC(N)=O)NC(=O)[C@H](CCCCNC(=O)CC[C@H](NC(=O)CCCCCCCCCCCCCCCCC(=O)O)C(=O)O)NC(=O)[C@H](CC(=O)O)NC(=O)[C@H](CC(C)C)NC(=O)[C@@H](NC(=O)[C@@H](NC(=O)[C@H](C)NC(=O)[C@H](CC(C)C)NC(=O)[C@H](CCC(=O)O)NC(=O)[C@H](CO)NC(=O)[C@@H](NC(=O)[C@H](Cc1ccccc1)NC(=O)[C@H](CO)NC(=O)CNC(=O)[C@H](CCC(=O)O)NC(=O)C(C)(C)NC(=O)[C@@H](N)Cc1c[nH]cn1)[C@@H](C)O)[C@@H](C)O)[C@@H](C)CC)C(=O)N[C@@H](C)C(=O)N[C@@H](Cc1c[nH]c2ccccc12)C(=O)N[C@@H](CC(C)C)C(=O)N[C@H](C(=O)N[C@@H](CC(C)C)C(=O)N[C@@H](Cc1c[nH]cn1)C(=O)N[C@@H](CCCCN)C(=O)N[C@H](C(=O)N[C@H](C(=O)N[C@@H](CC(=O)O)C(=O)O)[C@@H](C)O)[C@@H](C)CC)[C@@H](C)CC
B5: Compound 29 (peptide)
peptide: B1 peptide with T5S, E28K
HELM: PEPTIDE1{H.[Aib].E.G.S.F.T.S.E.L.A.T.I.L.D.K.Q.A.A.R.D.F.I.A.W.L.I.K.H.K.I.T.D}|PEPTIDE2{[O=C(O)CCCCCCCCCCCCCCCCC(=O)[*:2]].[gGlu]}$PEPTIDE1,PEPTIDE2,16:R3-2:R2$$$V2.0
SMILES: CC[C@H](C)[C@H](NC(=O)[C@H](Cc1ccccc1)NC(=O)[C@H](CC(=O)O)NC(=O)[C@H](CCCNC(=N)N)NC(=O)[C@H](C)NC(=O)[C@H](C)NC(=O)[C@H](CCC(N)=O)NC(=O)[C@H](CCCCNC(=O)CC[C@H](NC(=O)CCCCCCCCCCCCCCCCC(=O)O)C(=O)O)NC(=O)[C@H](CC(=O)O)NC(=O)[C@H](CC(C)C)NC(=O)[C@@H](NC(=O)[C@@H](NC(=O)[C@H](C)NC(=O)[C@H](CC(C)C)NC(=O)[C@H](CCC(=O)O)NC(=O)[C@H](CO)NC(=O)[C@@H](NC(=O)[C@H](Cc1ccccc1)NC(=O)[C@H](CO)NC(=O)CNC(=O)[C@H](CCC(=O)O)NC(=O)C(C)(C)NC(=O)[C@@H](N)Cc1c[nH]cn1)[C@@H](C)O)[C@@H](C)O)[C@@H](C)CC)C(=O)N[C@@H](C)C(=O)N[C@@H](Cc1c[nH]c2ccccc12)C(=O)N[C@@H](CC(C)C)C(=O)N[C@H](C(=O)N[C@@H](CCCCN)C(=O)N[C@@H](Cc1c[nH]cn1)C(=O)N[C@@H](CCCCN)C(=O)N[C@H](C(=O)N[C@H](C(=O)N[C@@H](CC(=O)O)C(=O)O)[C@@H](C)O)[C@@H](C)CC)[C@@H](C)CC

Experiments:
[1] = target: human glucagon-like peptide 1 receptor (GLP-1 R) (human, UniProt P43220 24-463); assay: cell-based or functional assay
[2] = target: T1, human GLP-2 receptor (hGLP2-R); assay: cell-based or functional assay

Row | Binder | EC50 GLP-1 (nM); cAMP response [1] [nM] | EC50 GLP-2 (nM); cAMP response [2] [nM]
1 | B1 | 0.094 | 0.33
2 | B2 | 0.45 | 1.1
3 | B3 | 0.29 | 0.59
4 | B4 | 0.36 | 0.51
5 | B5 | 0.31 | 0.29
